# In patent US20220227811A1:
# Values joined by “and” are separate entries in the source; they are usually repeats but may differ in a detail not shown here. Equal entries are not always repeated. Starred links: 1 amine or outer side, 2 acyl side, 3 side chain; linkers in the order of their positions; H or OH if unused. Positions of bridges follow the written chain, without caps; N, C: chain ends. Non-standard residues stand in square brackets, D forms with d. Chains are numbered I, II in the order given. No end group written: not given here. *: point of attachment. TATA = O=C(CC[*:1])N1CN(C(=O)CC[*:2])CN(C(=O)CC[*:3])C1; d1Nal = N[C@H](Cc1cccc2ccccc12)C(=O)O; Hyp = O=C(O)[C@@H]1C[C@@H](O)CN1; hArg = N=C(N)NCCCC[C@H](N)C(=O)O; tBuAla = CC(C)(C)C[C@H](N)C(=O)O; Nle = CCCC[C@H](N)C(=O)O; Pent4ynoyl = C#CCCC(=O)*
# B1: EphA2/CD137 heterotandem bicyclic peptide complex BCY13272 (peptide)
# peptide 1: A[hArg]DC[Hyp]LVNPLCLEP[d1Nal]WTC
# peptide 2: Ac-C[tBuAla]PE[dK](Pent4ynoyl)PYCFADPY[Nle]CA
# modifications: linker I:4-I:11-I:18, II:1-II:8-II:15 via TATA; not fully specified (N-terminus, bridges); also: chain 1 N-terminus coupled to N-(acid-PEG3)-N-bis(PEG3-azide) linker, D-Lys(PYA) of chain 2 clicked (triazole) to linker azide arm, complex has a second BCY8928 copy not listed as a chain
# Experiments:
# [1] = molecular target: Recombinant human CD137 (R&D systems) (human), Q07011; experiment: SPR (Biacore), biotinylated human CD137 captured on a streptavidin chip, BCY13272 as analyte, 1:1 fit (Scrubber)
# [2] = molecular target: CD137 on Jurkat reporter cells (Promega CD137 luciferase reporter assay, kit CS196005), Q07011; experiment: cell-based or functional assay
# [3] = molecular target: CD137 on human PBMCs (anti-CD3 stimulated, co-culture assay) (human), Q07011; experiment: cell-based or functional assay
# [4] = molecular target: human EphA2 protein (human), P29317; experiment: SPR (Biacore), biotinylated human EphA2 captured on a streptavidin chip, BCY13272 as analyte, 1:1 fit (Scrubber)
# [5] = molecular target: human EphA2 protein (human), P29317; experiment: SPR (Biacore T200), biotinylated EphA2 captured on a streptavidin chip, peptide as analyte, 1:1 fit
# Sequence of Recombinant human CD137 (R&D systems) (human), Q07011 (Q07011 24-186 limits assumed): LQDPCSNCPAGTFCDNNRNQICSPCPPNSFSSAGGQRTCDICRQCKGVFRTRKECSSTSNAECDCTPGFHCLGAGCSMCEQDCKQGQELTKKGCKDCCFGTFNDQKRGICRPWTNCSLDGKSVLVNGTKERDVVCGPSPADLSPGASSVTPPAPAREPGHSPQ
# Sequence of human EphA2 protein (human), P29317 (P29317 25-534 limits assumed): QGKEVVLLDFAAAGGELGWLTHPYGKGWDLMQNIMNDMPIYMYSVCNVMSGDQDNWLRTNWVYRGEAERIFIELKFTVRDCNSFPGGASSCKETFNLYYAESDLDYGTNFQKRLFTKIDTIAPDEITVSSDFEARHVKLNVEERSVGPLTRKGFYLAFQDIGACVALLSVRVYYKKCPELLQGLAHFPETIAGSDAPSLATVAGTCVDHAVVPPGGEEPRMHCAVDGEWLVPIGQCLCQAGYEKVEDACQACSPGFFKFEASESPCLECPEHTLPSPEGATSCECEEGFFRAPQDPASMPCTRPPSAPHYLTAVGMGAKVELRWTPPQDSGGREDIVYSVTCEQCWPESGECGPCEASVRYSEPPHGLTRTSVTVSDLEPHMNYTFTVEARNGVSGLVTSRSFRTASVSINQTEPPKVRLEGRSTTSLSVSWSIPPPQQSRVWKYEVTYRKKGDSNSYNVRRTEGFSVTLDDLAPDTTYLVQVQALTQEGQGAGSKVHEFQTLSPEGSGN
# Sequence of CD137 on Jurkat reporter cells (Promega CD137 luciferase reporter assay, kit CS196005), Q07011 (Q07011 24-255 limits assumed): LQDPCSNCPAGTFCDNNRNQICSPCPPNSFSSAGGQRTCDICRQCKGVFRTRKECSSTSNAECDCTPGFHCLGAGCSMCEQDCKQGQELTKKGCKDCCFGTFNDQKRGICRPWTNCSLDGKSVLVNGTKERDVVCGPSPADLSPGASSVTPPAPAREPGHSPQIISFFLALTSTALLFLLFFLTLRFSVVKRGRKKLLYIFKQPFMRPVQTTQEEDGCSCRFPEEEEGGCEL
# Sequence of CD137 on human PBMCs (anti-CD3 stimulated, co-culture assay) (human), Q07011 (Q07011 24-255): as the sequence (Q07011 24-255 limits assumed) above
binder,measurement,setting,value
B1,Kd,[1],< 0.0331 nM
same,koff,[1],< 1e-05 s⁻¹
same,kon,[1],302000 M⁻¹ s⁻¹
same,"EC50 (nM), CD137 luciferase reporter assay, co-culture with EphA2 cell line A549",[2],0.107 nM and 0.132 nM and 0.147 nM
same,"EC50 (nM), CD137 luciferase reporter assay, co-culture with EphA2 cell line HT-29",[2],0.567 nM and 0.187 nM and 0.205 nM
same,"EC50 (nM), CD137 luciferase reporter assay, co-culture with EphA2 cell line PC-3",[2],0.245 nM and 0.0805 nM and 0.0898 nM
same,"Emax (fold induction over background), CD137 luciferase reporter assay, co-culture with EphA2 cell line A549",[2],23.6 fold and 30.2 fold and 25.7 fold
same,"Emax (fold induction over background), CD137 luciferase reporter assay, co-culture with EphA2 cell line HT-29",[2],36.5 fold and 26 fold and 36.4 fold
same,"Emax (fold induction over background), CD137 luciferase reporter assay, co-culture with EphA2 cell line PC-3",[2],44.5 fold and 44.2 fold and 53 fold
same,"Geo mean EC50/cell line, CD137 luciferase reporter assay, co-culture with EphA2 cell line A549",[2],0.127 nM
same,"Geo mean EC50/cell line, CD137 luciferase reporter assay, co-culture with EphA2 cell line HT-29",[2],0.279 nM
same,"Geo mean EC50/cell line, CD137 luciferase reporter assay, co-culture with EphA2 cell line PC-3",[2],0.117 nM
same,"EC50 (nM) of IL-2 cytokine secretion, human PBMC co-culture with HT-1080 cells (N = 4)",[3],0.55 nM
same,"EC50 (nM) of IL-2 cytokine secretion, human PBMC co-culture with MC38 cells (N = 5)",[3],0.79 nM
same,koff,[4],0.00102 s⁻¹
same,kon,[4],502000 M⁻¹ s⁻¹
same,Kd,[5],2 nM
